{
  "source": "ChEMBL document CHEMBL1150988",
  "about": "“-lactam-recognizing enzymes exhibit different structural specificity in acyclic amide and ester substrates: a starting point in -lactamase evolution?” (Bioorg Med Chem Lett, 1994)",
  "details_in_all_cases": "enterococcus cloacae",
  "key": {"[1]": {"substrate": "CC(=O)NCCCC[C@H](NC(C)=O)C(=O)NCC(=O)O[C@H](C)C(=O)O", "test": "(§1) Km against P99 beta-lactamase"}, "[2]": {"substrate": "C[C@@H](SC(=O)CNC(=O)Cc1ccccc1)C(=O)O", "test": "as §1"}, "[3]": {"substrate": "CC(=O)NCCCC[C@H](NC(C)=O)C(=O)N[C@@H](C)C(=O)O[C@H](C)C(=O)O", "test": "as §1"}, "[4]": {"substrate": "C[C@H](NC(=O)Cc1ccccc1)C(=O)O[C@H](C)C(=O)O", "test": "as §1"}, "[5]": {"substrate": "CC(=O)NCCCC[C@H](NC(C)=O)C(=O)NCC(=O)S[C@H](C)C(=O)O", "test": "as §1"}, "[6]": {"substrate": "C[C@@H](OC(=O)CNC(=O)Cc1ccccc1)C(=O)O", "test": "as §1"}},
  "data": [
    {"protein": "Beta-lactamase (Enterobacter cloacae), P05364 (protein) MMRKSLCCALLLGISCSALATPVSEKQLAEVVANTITPLMKAQSVPGMAVAVIYQGKPHYYTFGKADIAANKPVTPQTLFELGSISKTFTGVLGGDAIARGEISLDDAVTRYWPQLTGKQWQGIRMLDLATYTAGGLPLQVPDEVTDNASLLRFYQNWQPQWKPGTTRLYANASIGLFGALAVKPSGMPYEQAMTTRVLKPLKLDHTWINVPKAEEAHYAWGYRDGKAVRVSPGMLDAQAYGVKTNVQDMANWVMANMAPENVADASLKQGIALAQSRYWRIGSMYQGLGWEMLNWPVEANTVVEGSDSKVALAPLPVAEVNPPAPPVKASWVHKTGSTGGFGSYVAFIPEKQIGIVMLANTSYPNPARVEAAYHILEALQ", "values": [
      {"measurement": "Km", "setting": "[1]", "value": 36.1, "unit": "mM"},
      {"measurement": "Km", "setting": "[2]", "value": 3.3, "unit": "mM"},
      {"measurement": "Km", "setting": "[3]", "value": 26.9, "unit": "mM"},
      {"measurement": "Km", "setting": "[4]", "value": 23.4, "unit": "mM"},
      {"measurement": "Km", "setting": "[5]", "value": 6.7, "unit": "mM"},
      {"measurement": "Km", "setting": "[6]", "value": 8.1, "unit": "mM"}
    ]}
  ]
}
